Blank lines part the entries; values can stand above or below the substance they belong to.
How the values were obtained:
[1] = molecular target: NPCs isolated from an Mlp1ppxPrA pNup84–mCherry strain expressing Kap95–GFP (S. cerevisiae (endogenous) | S. cerevisiae) (UniProt Q02455); experiment: immunofluorescence of isolated NPCs on coverglass (confocal); isolated NPCs kept in PBS at 4 °C for 0, 24, 48 and 72 h, put on poly-L-lysine coverglass; anti-eGFP–AF647 signal at spots co-localized with anti-mCherry–AF568; single-exponential fit of the loss
[2] = molecular target: isolated native yeast (wild type) nuclear pore complex (S. cerevisiae (endogenous)) (UniProt Q02455); experiment: affinity purification with mass spectrometry; whole NPCs captured through Mlp1-ppx-PrA from cryogenically lysed yeast (20 mM HEPES–KOH pH 7.4, 50 mM potassium acetate, 20 mM NaCl, 2 mM MgCl2, Triton X-100, Tween-20), native elution by protease cleavage; label-free quantitation; +CP (after isolation) compared with −CP (72 h in buffer) NPCs
[3] = molecular target: Nup116FG (amino acids 1–725), hydrogel particles (S. cerevisiae) (UniProt Q02630); experiment: FG-hydrogel permeation assay (confocal fluorescence); preformed NupFG hydrogel particles (3.3 µM total NupFG, 5% FMAL-labelled, TBS); Kap95–AF568 in 150 mM NaCl, 100 mM Tris pH 8 added

- half-life of dissociation (t1/2) [1]: 20.1 h
Substance: Kap95–GFP expressed under its native promoter (from UniProt Q06142 1-861) (natural protein)

- stoichiometry N (Kap95 molecules per NPC) [2]: 15 to 20
Substance: endogenous Kap95 (from UniProt Q06142 1-861) (natural protein)

- concentration of Kap95–AF568 in Nup116FG particles [3]: 1.58 µM
Substance: Kap95 labelled with Alexa Fluor 568 C5 maleimide (from UniProt Q06142 1-861) (natural protein)

Reference: paper PMC12717009
